Results published in patent publication US20240018237A1 (SICHUAN KELUN BIOTECH BIOPHARMACEUTICAL, published 2024).
Substitutions are numbered along the chain they refer to.

B1: 19F6-Hu35V1 (antibody, human IgG1, kappa, V domains shown)
VH: QVQLQESGPGLVKPSQTLSLTCTVSGYSITSDYAWNWIRQFPGKGLEWIGYISYSGSIRYNPSLKSRVTISRDTSKNQFSLKLSSVTAADTAVYYCARGEITYYFDYWGQGTLVTVSS
VL: ETTLTQSPAFMSATPGDKVTISCKASTSIDDDMNWYQQKPGEPPKLIISEGNTLRPGIPPRFSSSGYGTDFTFTINKIKSEDAATYYCLQSNDLPLTFGQGTKLEIKR
notes: humanized, human IgG1 / kappa
B2: 3D8-HuC24 (antibody, human IgG1, kappa, V domains shown)
VH: EVQLVESGGGLVQPGGSLRLSCAASGFTFSSYAMSWVRQAPGKGLEWVASINSGGSTYYPDSVKGRFTISRDNAKNSLYLQMNSLRAEDTAVYYCARVNYYGYGDYAMDYWGQGTLVTVSS
VL: DIQMTQSPSSLSASVGDRVTITCQASQDISNYLTWFQQKPGKSPKTLIHRANRLVTGVPSRFSGSGSGTDFTFTISSLQPEDIATYYCLQYDEFPYTFGGGTKVEIKR
notes: humanized, human IgG1 / kappa
B3: 38F8-Hu57 (antibody, human IgG1, kappa, V domains shown)
VH: EVQLVESGGGLVQPGGSLRLSCAASGFTFSNYAMSWVRQAPEKRLEWVASISSGGPTYYPDSVKGRFTVSRDNSKNTLYLQMNSLRAEDTAVYYCARGYRYDVNWYFDVWGAGTMVTVSS
VL: B2 VL with F71Y, T85I
notes: humanized, human IgG1 / kappa
B4: 19F6-Hu35 (antibody, human IgG1, kappa, V domains shown)
VH: B1 VH
VL: B1 VL with S28D, K77N, K79E, T85D
notes: humanized, human IgG1 / kappa
B5: 19F6-Hu35V2 (antibody, human IgG1, kappa, V domains shown)
VH: B1 VH
VL: B1 VL with S28D, D31S
notes: humanized, human IgG1 / kappa
B6: 19F6-Hu35V3 (antibody, human IgG1, kappa, V domains shown)
VH: B1 VH
VL: B1 VL with E42K, K79E
notes: humanized, human IgG1 / kappa
B7: 19F6-Hu35V4 (antibody, human IgG1, kappa, V domains shown)
VH: B1 VH
VL: B1 VL with D31N, E42K, K79E
notes: humanized, human IgG1 / kappa
B8: 19F6-Hu35V6 (antibody, human IgG1, kappa, V domains shown)
VH: B1 VH
VL: B1 VL with S28D, D31N, E42K, K77N
notes: humanized, human IgG1 / kappa
B9: 19F6-Hu35V7 (antibody, human IgG1, kappa, V domains shown)
VH: B1 VH
VL: B1 VL with E42K, K77N, K79Q
notes: humanized, human IgG1 / kappa
B10: 19F6-Hu35V8 (antibody, human IgG1, kappa, V domains shown)
VH: B1 VH
VL: B1 VL with S28D, D31N, E42K, K77N, K79Q
notes: humanized, human IgG1 / kappa
B11: 19F6-Hu35V9 (antibody, human IgG1, kappa, V domains shown)
VH: B1 VH
VL: B1 VL with E42K, N76R, K79E, T85D
notes: humanized, human IgG1 / kappa
B12: 19F6-Hu35V10 (antibody, human IgG1, kappa, V domains shown)
VH: B1 VH
VL: B1 VL with S28D, D31S, E42K, N76R, K79E, T85D
notes: humanized, human IgG1 / kappa
B13: 19F6-Hu34 (antibody, human IgG1, kappa, V domains shown)
VH: B1 VH
VL: DIQMTQSPSSLSASVGDRVTITCQTSTDIDDDLNWYQQKPGKPPKLLISEGNTLETGVPSRFSGSGSGTDFTFTISSLQPEDIADYYCLQSNDLPLTFGAGTKLEIKR
notes: humanized, human IgG1 / kappa
B14: 19F6-Hu22 (antibody, human IgG1, kappa, V domains shown)
VH: B1 VH with Q16E, F41P, I49M, S66D, V68I
VL: DIQMTQSPSSLSASVGDRVTITCITTTDIDDDMNWYQQKPGKAPKLLISEGNTLQSGVPSRFSGSGYGTDFTLTISSLQPEDFATYYCLQSNDLPLTFGQGTKLEIKR
notes: humanized, human IgG1 / kappa
B15: 19F6-Hu11 (antibody, human IgG1, kappa, V domains shown)
VH: B1 VH with Q16E, S25T, F41P, I49M, N61K, S66D, V68I
VL: B14 VL with Q55R, S56P
notes: humanized, human IgG1 / kappa
B16: 19F6-Hu12 (antibody, human IgG1, kappa, V domains shown)
VH: B1 VH with Q16E, S25T, F41P, I49M, N61K, S66D, V68I
VL: B14 VL
notes: humanized, human IgG1 / kappa
B17: 19F6-Hu13 (antibody, human IgG1, kappa, V domains shown)
VH: B1 VH with Q16E, S25T, F41P, I49M, N61K, S66D, V68I
VL: B14 VL with I24R, T25A, T26S, S49Y
notes: humanized, human IgG1 / kappa
B18: 19F6-Hu21 (antibody, human IgG1, kappa, V domains shown)
VH: B1 VH with Q16E, F41P, I49M, S66D, V68I
VL: B14 VL with Q55R, S56P
notes: humanized, human IgG1 / kappa
B19: 19F6-Hu23 (antibody, human IgG1, kappa, V domains shown)
VH: B1 VH with Q16E, F41P, I49M, S66D, V68I
VL: B14 VL with I24R, T25A, T26S, S49Y
notes: humanized, human IgG1 / kappa
B20: 19F6-Hu24 (antibody, human IgG1, kappa, V domains shown)
VH: B1 VH with Q16E, F41P, I49M, S66D, V68I
VL: B13 VL
notes: humanized, human IgG1 / kappa
B21: 19F6-Hu31 (antibody, human IgG1, kappa, V domains shown)
VH: B1 VH
VL: B14 VL with Q55R, S56P
notes: humanized, human IgG1 / kappa
B22: 19F6-Hu32 (antibody, human IgG1, kappa, V domains shown)
VH: B1 VH
VL: B14 VL
notes: humanized, human IgG1 / kappa
B23: 19F6-Hu33 (antibody, human IgG1, kappa, V domains shown)
VH: B1 VH
VL: B14 VL with I24R, T25A, T26S, S49Y
notes: humanized, human IgG1 / kappa
B24: 19F6-Hu14 (antibody, human IgG1, kappa, V domains shown)
VH: B1 VH with Q16E, S25T, F41P, I49M, N61K, S66D, V68I
VL: B13 VL
notes: humanized, human IgG1 / kappa

What follows are binders tested against T1, human ROR1 (full-length, on the cell surface) (human, UniProt Q01973 30-937) (assay: cell-based or functional assay).
T1 sequence (Q01973 30-937): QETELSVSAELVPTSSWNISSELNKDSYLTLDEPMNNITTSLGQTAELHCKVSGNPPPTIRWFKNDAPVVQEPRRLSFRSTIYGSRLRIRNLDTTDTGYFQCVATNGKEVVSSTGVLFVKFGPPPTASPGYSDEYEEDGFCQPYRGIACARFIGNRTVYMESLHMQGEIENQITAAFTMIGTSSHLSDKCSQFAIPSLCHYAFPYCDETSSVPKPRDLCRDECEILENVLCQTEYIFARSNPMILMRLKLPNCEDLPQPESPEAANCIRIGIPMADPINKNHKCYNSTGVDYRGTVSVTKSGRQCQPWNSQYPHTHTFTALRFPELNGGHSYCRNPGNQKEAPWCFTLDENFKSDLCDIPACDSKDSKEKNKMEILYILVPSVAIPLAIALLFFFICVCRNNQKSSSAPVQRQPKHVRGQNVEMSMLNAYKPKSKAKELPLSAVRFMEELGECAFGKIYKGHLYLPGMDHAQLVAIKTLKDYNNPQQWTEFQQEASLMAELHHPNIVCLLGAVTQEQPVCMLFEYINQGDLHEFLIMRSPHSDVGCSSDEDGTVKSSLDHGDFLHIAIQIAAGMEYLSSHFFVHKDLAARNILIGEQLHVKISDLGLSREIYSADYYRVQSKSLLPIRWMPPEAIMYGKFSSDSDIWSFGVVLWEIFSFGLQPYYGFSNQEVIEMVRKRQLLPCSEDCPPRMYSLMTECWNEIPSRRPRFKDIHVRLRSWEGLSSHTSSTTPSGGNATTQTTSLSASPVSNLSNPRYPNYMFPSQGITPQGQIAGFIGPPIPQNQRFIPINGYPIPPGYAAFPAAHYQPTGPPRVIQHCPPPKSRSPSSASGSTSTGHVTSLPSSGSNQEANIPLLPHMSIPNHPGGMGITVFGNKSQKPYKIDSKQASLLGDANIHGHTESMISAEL

Binder | internalization activity in N87 cells (pHrodo dye), fold over UC961 [fold]
B1 | ~7

Molecular target: T1, human ROR1 (full-length, on the cell …)
Test: cell-based or functional assay
Remark: another data set of the same source

Binder | EC50 of ADCC killing of Ba/F3-ROR1 cells by NK92MI-mCD16a-hFceRI cells [nM]
B1 | 0.31
B2 | 0.28
B3 | 0.19

The binders below were run against T1, human ROR1 (full-length, on the cell …) (assay: flow cytometry, A549 cells).
Procedure: (§1) The affinities of the anti-human ROR1 humanized antibodies to Ba/F3-ROR1, Jeko-1, HT-29 and A549 cells were detected by flow cytometry. The specific experimental steps were as follows: the BaBF3-ROR1, Jeko-1, HT-29 and A549 cells were incubated with the purified humanized antibodies of different concentration gradients on ice for 30 minutes, and the anti-ROR1 antibody UC961 with human IgG1 and the anti-TNP antibody were used as positive and negative controls, respectively.

Binder | EC50 [nM]
B4 | 0.08
B1 | 0.08
B5 | 0.1
B6 | 0.1
B7 | 0.15
B8 | 0.08
B9 | 0.1
B10 | 0.09
B11 | 0.14
B12 | 0.12
B2 | 0.29
B3 | 0.23
B13 | 0.13
B14 | 0.25
B15 | 0.17
B16 | 0.16
B17 | 0.47
B18 | 0.31
B19 | 0.14
B20 | 0.24
B21 | 0.09
B22 | 0.09
B23 | 0.25
B24 | 0.12

Each binder was assayed against T1, human ROR1 (full-length, on the cell …) (assay: flow cytometry, HT-29 cells).
Procedure: as §1

Binder | EC50 [nM]
B4 | 0.09
B1 | 0.15
B5 | 0.18
B6 | 0.17
B7 | 0.3
B8 | 0.16
B9 | 0.18
B10 | 0.12
B11 | 0.17
B12 | 0.17
B2 | 0.17
B3 | 0.33
B13 | 0.19
B14 | 0.16
B15 | 0.08
B16 | 0.11
B17 | 0.75
B18 | 0.18
B19 | 0.62
B20 | 0.25
B21 | 0.1
B22 | 0.09
B23 | 0.78
B24 | 0.1

Each binder was assayed against T1, human ROR1 (full-length, on the cell …) (assay: flow cytometry, Jeko-1 cells).
Procedure: as §1

Binder | EC50 [nM]
B4 | 0.15
B1 | 0.12
B5 | 0.19
B6 | 0.18
B7 | 0.2
B8 | 0.2
B9 | 0.22
B10 | 0.18
B11 | 0.28
B12 | 0.35
B2 | 0.04
B3 | 0.07
B13 | 0.18
B14 | 0.13
B15 | 0.15
B16 | 0.17
B17 | 0.17
B18 | 0.22
B19 | 0.21
B20 | 0.2
B21 | 0.18
B22 | 0.18
B23 | 0.15
B24 | 0.12

These binders were tested against T1, human ROR1 (full-length, on the cell …) (assay: flow cytometry, Ba/F3-ROR1 cells).

Binder | EC50 [nM]
B4 | 0.38
B1 | 0.17
B5 | 0.19
B6 | 0.18
B7 | 0.28
B8 | 0.17
B9 | 0.19
B10 | 0.18
B11 | 0.21
B12 | 0.27
B13 | 0.53
B14 | 0.3
B15 | 0.25
B16 | 0.43
B17 | 0.29
B18 | 0.36
B19 | 0.35
B20 | 0.39
B21 | 0.3
B22 | 0.44
B23 | 0.35
B24 | 0.62

Molecular target: T1, human ROR1 (full-length, on the cell …)
Test: flow cytometry, Ba/F3-ROR1 cells
Remark: another data set of the same source
Procedure: as §1

Binder | EC50 [nM]
B2 | 0.23
B3 | 0.75

What follows are binders tested against T2, human ROR1 ECD protein (human, UniProt Q01973 30-406) (assay: BLI (Octet), antibody on AHC sensor, ROR1 ECD in solution).
T2 construct: range 30-406; Expressed in Expi293 or ExpiCHO cells; also called Recombinant human ROR ECD
T2 sequence (Q01973 30-406): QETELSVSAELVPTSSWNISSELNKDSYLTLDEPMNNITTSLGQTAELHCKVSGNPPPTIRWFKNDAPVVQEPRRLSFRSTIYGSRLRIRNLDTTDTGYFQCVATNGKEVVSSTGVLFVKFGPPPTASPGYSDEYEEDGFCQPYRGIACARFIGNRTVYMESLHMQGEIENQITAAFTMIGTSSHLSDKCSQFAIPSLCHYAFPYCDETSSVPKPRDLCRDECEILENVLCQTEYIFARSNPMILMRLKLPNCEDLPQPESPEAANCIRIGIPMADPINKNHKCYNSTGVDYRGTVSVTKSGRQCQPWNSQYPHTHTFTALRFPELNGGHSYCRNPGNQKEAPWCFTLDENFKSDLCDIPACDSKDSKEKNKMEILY

Binder | fold stronger affinity than UC961 (by KD) [fold]
B1 | 5.4

The binders below were run against T2, human ROR1 ECD protein (assay: BLI (Octet), antibody on AHC sensor, ROR1 ECD in solution, 1:1 model).
Procedure: The dynamic affinities of humanized molecules 19F6-Hu35V1, 3D8-HuC24 and 38F8-Hu57 and positive control antibody UC961 to human ROR1 ECD protein were determined by Octet ForteBio method.

Binder | Kd [nM] | koff [s⁻¹] | kon [M⁻¹ s⁻¹]
B1 | 1.61 | 0.000863 | 538000
B2 | 26.1 | 0.0153 | 586000
B3 | 10 | 0.00242 | 241000
